Reference: PMC6007958, “Identification, characterization and application of a new peptide against anterior gradient homolog 2 (AGR2)” (Oncotarget, 2018)
No end group written: not given here. *: point of attachment. Biotin = O=C1N[C@H]2[C@H](CS[C@H]2CCCCC(=O)*)N1

T1: AGR2 (Homo sapiens, UniProt O95994)
T1 construct: histidine tag (N, cleaved yes); made in house; host or cells: E. coli BL21 de3
T1 sequence (O95994 with tags, fused parts or gaps): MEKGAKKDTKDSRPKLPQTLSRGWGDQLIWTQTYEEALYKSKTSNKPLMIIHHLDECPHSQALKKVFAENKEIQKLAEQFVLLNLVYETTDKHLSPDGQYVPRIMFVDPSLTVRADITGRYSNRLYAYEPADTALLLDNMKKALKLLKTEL

T2: H10 peptide (biotin-…)
T2 chain: GGGSGMKMQVRIYLV

T3: extracellular AGR2 (eAGR2) in spent media of cancer cell lines (human (endogenous in MCF-7 and 22Rv1), UniProt O95994 21-175)
T3 sequence (looked up): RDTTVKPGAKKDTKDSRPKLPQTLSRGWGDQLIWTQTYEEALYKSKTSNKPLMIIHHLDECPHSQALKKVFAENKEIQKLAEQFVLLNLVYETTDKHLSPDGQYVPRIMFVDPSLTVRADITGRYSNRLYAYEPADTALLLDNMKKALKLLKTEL


Key:
[1] = molecular target: T1, AGR2; assay: SPR competition, AGR2 binding to immobilized H10 in presence of free peptide; conditions: peptide 500 nM co-/pre-incubated with AGR2 500 nM
Method: SPR measurements were carried out on a Biacore T200 (GE) and data was analyzed using Biacore T200 Evaluation Software (version 1.0). Data was analyzed for a 1:1, two-stage and bivalent binding model. Average affinities were obtained from independent experimental repeats and errors are given as mean absolute deviations. Measurements were carried out at flow rates of 20 μL/min and confirmed experimentally to avoid mass transfer limitation. For direct binding studies of AGR2 to biotinylated H10-peptide a carboxymethyl-Dextran coated CM5 chip was coated with Streptavidin using standard amine coupling chemistry. Residual activated carboxyl groups were blocked with 1,2-Ethylenediamine. In contrast to conventional ethanolamine blocking, this procedure introduces positive charges to partially compensate the negative surface charge and reduce unspecific binding by AGR2. Biotinylated peptide was loaded and remaining free biotin sites were blocked by incubating the chip in biotin containing buffer over night to allow for biotinylated peptides to be used in competition assays. Optimal binding and minimal unspecific interaction was found for a running buffer consisting of Tris (100 mM, pH 7.5), NaCl (150 mM) and MgCl2 (10 mM).

[2] = test system: MDA-MB-231; assay: Luminescent cytotoxicity (ATP viability, CellTiter-Glo) assay; format: cell-based; conditions: MDA-MB-231, 48 hours, eight concentrations, 4PL fit, read-out: IC50, cell viability
Method: (§1) Cells were seeded into 96-well White with Clear Flat Bottom plates (Costar). Cell density was optimized for each cell type, PC-3 and MDA-MB-231 were seeded at 0.24×10^6 cells/mL or 0.06×10^6 cells/mL. After 12 hours, treatments were added, with the stock concentration for Taxol at 400 nM (Selleckchem), H10 peptide was 200 μg/mL and the control peptide was 200 μg/mL. We tested a total of eight concentrations using three-fold serial dilutions from the stock concentration. After 48 hours of treatment, we used the CellTiter-Glo Luminescent Cell Viability Assay (Promega) according to the manufacturer's protocol. The data was analyzed on Prism software using “log(inhibitor) vs. response” option. IC50 was calculated using the 4PL equation 1 as above.

[3] = test system: PC-3; assay: as above; format: cell-based; conditions: PC-3, 48 hours, eight concentrations, 4PL fit, read-out: IC50, cell viability
Method: as §1

[4] = test system: MDA-MB-231 cells; assay: Oris exclusion zone cell migration assay; format: cell-based; conditions: MDA-MB-231, 48 hours; H10 5 μmoles/L (10 μg/ml), taxol 5 nM, control peptide 10 μg/ml
Method: (§2) Cells were seeded into Oris™ 96-well plate with silicon stoppers in place (CMA1.101). Cell density was optimized for each cell type, PC-3 and MDA-MB-231 were seeded at 2.5×10^5 cells/mL or 6×10^4 cells/mL. Stoppers were removed 12 hours post seeding according to the manufacturer's protocol and treatments were added, Taxol (5 nM) (Selleckchem), H10 peptide (10 μg/ml), scrambled peptide (10 μg/ml), mouse anti-AGR2 antibody (1:50 of 2 μg/ml) (Santa Cruz Biotechnology), mouse-IgG (Santa Cruz Biotechnology), DMSO as control. After 48 hours, growth medium was aspirated and cells were fixed with 4% paraformaldehyde (Alfa Aesar) for 15 minutes at RT and washed with PBS. Cells were stained with Rhodamine phalloidin (Biotium) 1:40 and Hoechst (Invitrogen) 1:10,000 for 20 minutes at RT and washed with PBS.
(§3) Imaging was performed on a Zeiss Observer.Z1 microscope at 2.5x objective with AxioCam MRm camera and Axio Vision 4.8 software. Images were processed using ImageJ software package ( http://rsb.info.nih.gov/ij/) and following the cell migration method previously designed. The data was analyzed using GraphPad Prism 7.

[5] = test system: EGFR phosphorylation in PC3 cells; assay: Western blot of EGFR / p-EGFR-Y1068; format: cell-based; conditions: PC3 cells dosed 16 hours, p-EGFR-Y1068 by western blot
Method: We sought to ascertain a potential mechanism leading to decreased viability of cells upon exposure to H10 by examining cancer related pathways that have been linked with AGR2. […] We investigated the impact of H10 on EGFR phosphorylation as a possible mechanism of action. PC3 cells were dosed with H10 for 16 hours and the levels of EGFR and p-EGFR-Y1068 were analyzed by western blot (Figure 5C). […] Since amphiregulin is downstream of the HIPPO pathway, we also assessed the phosphorylation of the HIPPO effector, YAP1. We hypothesized that H10 may indirectly downregulate EGFR phosphorylation by altering activity of YAP1 (phosphorylation of YAP1 prevents […] translocation to the nucleus and transcription of amphiregulin [24]). Cell lysates from PC3 cells treated with H10 and the scrambled peptide were subject to immunoblot (Figure 5C).

[6] = test system: PC-3 cells; assay: Oris exclusion zone cell migration assay; format: cell-based; conditions: PC-3, 48 hours; taxol 5 nM, H10 10 μg/ml, control peptide 10 μg/ml, AGR2 antibody; fluorescent microscopy of cell-free zone
Method: as §2, §3

[7] = molecular target: T2, H10 peptide (biotin-…); assay: ELISA; conditions: chain shown with the change, read off a plot
[8] = molecular target: T3, extracellular AGR2 (eAGR2) in spent …; assay: cell-based or functional assay
[9] = AGR2 100 ng/ml, parent: est. 61
[10] = AGR2 200 ng/ml, parent: est. 76
[11] = AGR2 400 ng/ml, parent: est. 82
[12] = AGR2 600 ng/ml, parent: est. 83
[13] = AGR2 800 ng/ml, parent: est. 91

| response [7, 9] | response [7, 10] | response [7, 11] | response [7, 12] | response [7, 13] | Molecule | also measured |
| --- | --- | --- | --- | --- | --- | --- |
|  |  |  |  |  | Biotin-GSGSGSGSGSGSGSS [control peptide, biotinylated Gly/Ser control peptide, length 15] | suppression of AGR2 binding to immobilized H10 by free peptide [1]: largely ineffective; IC50 [2]: > 100 µM; IC50 [3]: > 100 µM; inhibition of cell migration [4]: did not alter cell migration |
|  |  |  |  |  | GGGSG VMLKYMIQRV [scrambled peptide] | concentration sufficient to downregulate EGFR phosphorylation [5]: > 20 µM |
|  |  |  |  |  | CC(=O)O[C@H]1C(=O)[C@@]2(C)[C@H]([C@H](OC(=O)c3ccccc3)[C@]3(O)C[C@H](OC(=O)[C@H](O)[C@@H](NC(=O)c4ccccc4)c4ccccc4)C(C)=C1C3(C)C)[C@]1(OC(C)=O)CO[C@@H]1C[C@@H]2O [taxol] | inhibition of cell migration [6]: inhibits cell migration of PC-3 cells |
| 30 % of binding | 27 % of binding | 30 % of binding | 36 % of binding | 55 % of binding | Δ27 AGR2 (recombinant anterior gradient protein 2 without the ER leader sequence), O95994 E96K (protein) GAKKDTKDSRPKLPQTLSRGWGDQLIWTQTYEEALYKSKTSNKPLMIIHHLDECPHSQALKKVFAENKKIQKLAEQFVLLNLVYETTDKHLSPDGQYVPRIMFVDPSLTVRADITGRYSNRLYAYEPADTALLLDNMKKALKLLKTELGLNDIFEAQKIEWHE |  |
| 42 % of binding | 42 % of binding | 46 % of binding | 51 % of binding | 57 % of binding | Δ27 AGR2 (recombinant anterior gradient protein 2 without the ER leader sequence), O95994 E60Q (protein) GAKKDTKDSRPKLPQTLSRGWGDQLIWTQTYEQALYKSKTSNKPLMIIHHLDECPHSQALKKVFAENKEIQKLAEQFVLLNLVYETTDKHLSPDGQYVPRIMFVDPSLTVRADITGRYSNRLYAYEPADTALLLDNMKKALKLLKTELGLNDIFEAQKIEWHE |  |
|  |  |  |  |  | Biotin-GGGSGMKMQVRIYLV [H10 peptide (biotin-GGGSGMKMQVRIYLV)] | ATP viability assay (CellTiter-Glo), MDA-MB-231 cells, 48 hours, IC50 of H10 [8]: 12 µM; ATP viability assay (CellTiter-Glo), PC-3 cells, 48 hours, IC50 of H10 [8]: 9 µM |
